Assay results taken from US20250376539A1 (KIRA PHARMACEUTICALS SUZHOU, published 2025).
Several values for one entry are separate records, joined by “and”; a condition that tells them apart may be missing. Identical values can stand only once.

How the values were obtained:
[1] = target: T1, recombinant human complement C2 (NP_000054.2), C-terminal 6His-tag, made in house (CHO cell expression) (human, UniProt P06681 21-752); assay: BLI (Gator), antibody on probe; 600 s association at pH 7.4, 600 s dissociation at pH 7.4
T1 construct: a linker before the tag is not described; also called human C2; Human C2
T1 sequence: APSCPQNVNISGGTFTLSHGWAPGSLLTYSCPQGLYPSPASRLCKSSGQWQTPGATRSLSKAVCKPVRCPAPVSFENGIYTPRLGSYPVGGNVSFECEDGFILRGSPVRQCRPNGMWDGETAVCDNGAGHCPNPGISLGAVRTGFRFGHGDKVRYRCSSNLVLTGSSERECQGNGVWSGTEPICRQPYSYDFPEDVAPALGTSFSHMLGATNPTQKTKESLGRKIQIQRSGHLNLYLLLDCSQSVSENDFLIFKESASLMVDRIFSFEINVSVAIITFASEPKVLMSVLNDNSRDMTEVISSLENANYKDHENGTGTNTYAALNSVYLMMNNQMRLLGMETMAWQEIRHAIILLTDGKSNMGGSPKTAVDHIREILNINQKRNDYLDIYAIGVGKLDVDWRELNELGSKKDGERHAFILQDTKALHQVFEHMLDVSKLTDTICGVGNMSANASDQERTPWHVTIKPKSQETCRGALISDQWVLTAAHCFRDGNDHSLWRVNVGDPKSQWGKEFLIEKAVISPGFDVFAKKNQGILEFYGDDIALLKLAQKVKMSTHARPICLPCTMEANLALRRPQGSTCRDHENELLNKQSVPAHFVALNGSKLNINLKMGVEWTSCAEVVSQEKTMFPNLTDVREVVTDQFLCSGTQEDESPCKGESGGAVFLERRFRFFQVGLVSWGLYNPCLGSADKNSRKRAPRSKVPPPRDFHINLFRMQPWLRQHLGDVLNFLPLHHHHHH
Method: (§1) The histidine mutant constructs in Table 4 were tested for their pH-dependent dissociation from human C2. Probe-immobilized anti-C2 antibodies were incubated with C2 at pH 7.4 for 600s, followed by a 600s dissociation period in K Buffer at pH 7.4 or pH 5.8. The data were processed and analyzed by the Gator evaluation software.
(§2) Non-fusion mAb were used for comparison.

[2] = target: T2, recombinant cynomolgus (cyno) complement C2 (XP_005553508.1), C-terminal 6His-tag, made in house (CHO cell … (cynomolgus monkey (Macaca fascicularis), UniProt P06681 21-752 (human entry))); assay: as above
T2 construct: also called cyno C2; Cyno C2
T2 chain: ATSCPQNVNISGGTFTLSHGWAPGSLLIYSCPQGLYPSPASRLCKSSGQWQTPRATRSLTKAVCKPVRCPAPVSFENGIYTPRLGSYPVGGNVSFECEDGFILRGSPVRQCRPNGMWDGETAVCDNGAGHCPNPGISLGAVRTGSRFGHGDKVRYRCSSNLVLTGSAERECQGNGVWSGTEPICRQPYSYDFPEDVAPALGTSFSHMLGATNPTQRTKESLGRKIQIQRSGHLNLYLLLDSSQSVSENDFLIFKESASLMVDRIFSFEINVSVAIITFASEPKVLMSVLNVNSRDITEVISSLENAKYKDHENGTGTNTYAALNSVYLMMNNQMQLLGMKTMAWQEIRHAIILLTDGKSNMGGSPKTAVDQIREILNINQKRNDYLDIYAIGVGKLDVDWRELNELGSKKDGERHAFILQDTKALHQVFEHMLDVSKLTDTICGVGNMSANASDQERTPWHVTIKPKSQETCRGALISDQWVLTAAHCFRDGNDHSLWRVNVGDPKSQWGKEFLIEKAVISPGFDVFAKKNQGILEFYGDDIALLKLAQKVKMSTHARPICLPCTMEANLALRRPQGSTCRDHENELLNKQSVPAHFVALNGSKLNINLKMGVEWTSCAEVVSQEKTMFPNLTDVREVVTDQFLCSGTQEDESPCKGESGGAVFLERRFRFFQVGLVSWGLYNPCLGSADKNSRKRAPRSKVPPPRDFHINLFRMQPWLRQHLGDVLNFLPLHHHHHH
Method: as §1, §2

[3] = target: T1, recombinant human complement C2 …; assay: binding kinetics, neutral pH (BLI presumed)
[4] = target: T2, recombinant cynomolgus (cyno) …; assay: ELISA
[5] = target: T3, human complement C2 in normal human serum (human, UniProt P06681 21-752); assay: cell-based or functional assay
T3 sequence: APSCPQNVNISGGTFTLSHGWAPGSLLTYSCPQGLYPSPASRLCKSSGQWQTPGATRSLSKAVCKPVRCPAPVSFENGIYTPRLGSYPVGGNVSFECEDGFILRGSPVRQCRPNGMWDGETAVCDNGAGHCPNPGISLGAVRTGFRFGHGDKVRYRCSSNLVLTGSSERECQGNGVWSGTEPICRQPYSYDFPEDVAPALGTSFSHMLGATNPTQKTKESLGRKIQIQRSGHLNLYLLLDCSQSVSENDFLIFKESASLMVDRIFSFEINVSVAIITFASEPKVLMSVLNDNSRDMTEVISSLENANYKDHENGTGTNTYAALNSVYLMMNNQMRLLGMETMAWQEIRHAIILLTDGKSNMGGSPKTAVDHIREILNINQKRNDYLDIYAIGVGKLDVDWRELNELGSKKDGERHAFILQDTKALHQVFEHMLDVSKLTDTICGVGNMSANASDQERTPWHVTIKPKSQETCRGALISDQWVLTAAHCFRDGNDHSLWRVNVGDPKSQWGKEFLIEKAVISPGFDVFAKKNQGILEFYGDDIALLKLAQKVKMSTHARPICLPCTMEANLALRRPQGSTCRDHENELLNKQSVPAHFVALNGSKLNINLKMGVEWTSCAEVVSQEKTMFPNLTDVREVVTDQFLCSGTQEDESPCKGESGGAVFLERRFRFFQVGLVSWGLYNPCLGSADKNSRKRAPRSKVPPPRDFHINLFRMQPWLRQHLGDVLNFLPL

[6] = target: T2, recombinant cynomolgus (cyno) …; assay: binding kinetics (BLI presumed)

B1: anti-C2 antibody 69.44 (antibody, IgG4, V domains shown)
VH: QVQLVQSGAEVKKPGASVKVSCKASGYSFTTYYMYWVRQAPGQGLEWMGIITPSGGSTTYAQKFQDRVTMTRDASTTTVYMELSSLRSEDTAVYYCARGYEGSYGFDHWGQGTLVTVSS
VL: SYELTQPPSVSLSPGQTASITCSGDKLGNKYTCWYQQKPGQSPVLVIYQDNKRPSGIPERFSGSNSGNTATLTISGTQAMDEADYYCQTWDSSTAVFGGGTKLTVL
notes: Recombinant
Dissociation (%) pH 7.4 [1]: 3.15%
Dissociation (%) pH 7.4 [2]: 4.81%
Kd [3]: 296 pM
koff [3]: 5.85e-05 s⁻¹
kon [3]: 197000 M⁻¹ s⁻¹
EC50 [4]: 79.4 pM
IC50, inhibition of sheep RBC lysis, 5% serum [5]: 2800 pM
Kd [6]: 304 pM
koff [6]: 5.89e-05 s⁻¹
kon [6]: 194000 M⁻¹ s⁻¹

B2: anti-C2 antibody 3.2 (antibody, IgG4, V domains shown)
VH: EVQLLESGGGLVQPGGSLRLSCAASGFTFRHYAMSWVRQAPGKGLEWVSLISGSGASTFYADSVKGRFTISRDNSENMLYLQMNSLRAEDTAVYYCAKDSLAVAGSEYFQHWGQGTLVTVSS
VL: SYVLTQAPSVSVAPGQTARITCGGNYFGGKSVHWYQQRPGQAPVLVVYDDSDRPSGIPERFSGSKSGNTATLAISRVEAGDEAAYYCQVYDTSSDHWVFGGGTKLTVL
notes: Recombinant; also called WT; "WT" 3.2
Dissociation (%) pH 7.4 [1]: 5.27%
Dissociation (%) pH 7.4 [2]: 5.37%
Kd [3]: 198 pM and 98.4 pM
koff [3]: 6.12e-05 s⁻¹ and 3.73e-05 s⁻¹
kon [3]: 308000 M⁻¹ s⁻¹ and 379000 M⁻¹ s⁻¹
EC50 [4]: 47.8 pM
IC50, inhibition of sheep RBC lysis, 5% serum [5]: 2900 pM
Kd [6]: 126 pM
koff [6]: 5.82e-05 s⁻¹
kon [6]: 461000 M⁻¹ s⁻¹
